Key:
[1] = molecular target: Flp(Y343F)-SUMO (S. cerevisiae (2-micron plasmid) | not stated) (UniProt P03870)
[2] = molecular target: T1, Flp(Y343F) (S. cerevisiae (2-micron plasmid)) (UniProt P03870)
T1 sequence: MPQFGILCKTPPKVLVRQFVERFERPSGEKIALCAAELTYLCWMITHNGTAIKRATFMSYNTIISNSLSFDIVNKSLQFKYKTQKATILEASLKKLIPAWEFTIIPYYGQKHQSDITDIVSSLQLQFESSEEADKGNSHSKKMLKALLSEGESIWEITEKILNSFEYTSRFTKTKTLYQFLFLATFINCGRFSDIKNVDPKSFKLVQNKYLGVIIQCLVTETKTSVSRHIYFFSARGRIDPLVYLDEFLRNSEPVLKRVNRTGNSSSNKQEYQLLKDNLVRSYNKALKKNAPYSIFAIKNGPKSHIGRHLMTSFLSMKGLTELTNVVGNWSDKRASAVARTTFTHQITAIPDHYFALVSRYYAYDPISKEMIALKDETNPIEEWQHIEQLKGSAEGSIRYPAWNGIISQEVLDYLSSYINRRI

- strand cleavage complementation on separately pre-bound half-sites; cleavage yield against that of Flp(R191A) with Flp(Y343F)-SUMO [1]: 1.6 fold
- strand cleavage complementation on separately pre-bound half-sites; cleavage yield against that of Flp(R191A) with Flp(Y343F) [2]: 1.5 fold
- strand cleavage complementation on separately pre-bound half-sites; cleavage yield against that of Flp(R191A)-SUMO with Flp(Y343F)-SUMO [2]: 1.5 fold
Substance: Flp(R191A)-SUMO (from UniProt P03870 1-423; Q12306 1-96) (enzyme)
